Where no end group is shown, it is not given here.
B1: ICP2, cyclic SGWRVQGPL peptide (peptide)
peptide: SGWRVQGPL
modifications: head-to-tail cyclized (cyclic peptide)
notes: also called IXP4
B2: ICP1, cyclic SGSKGVLPL peptide (peptide)
peptide: SGSKGVLPL
modifications: head-to-tail cyclized (cyclic peptide)
notes: Chemically synthesized linear, circularized and HPLC purified; also called IXP3
B3: linear XB peptide, CRGGRPALRVVK (peptide)
peptide: CRGGRPALRVVK
notes: The text calls XB the 11 C-terminal residues of E. coli SspB; also called linXB
B4: Con62, cyclic SGWPYKWM peptide (peptide)
peptide: SGWPYKWM
modifications: head-to-tail cyclized (cyclic peptide)
notes: Arbitrary cyclic peptide from the SGWX5 library, negative control; also called arbitrary cyclic peptide
B5: cyclic XB, RGGRPALRVVK (Table 6) (peptide)
peptide: RGGRPALRVVK
modifications: also: cyclized, ring type not given here
notes: possibly the same preparation as m6; also called cyclic XB peptide
B6: cycXB, cyclic XB peptide [CRGGRPALRVVK] (Table 4) (peptide)
peptide: CRGGRPALRVVK
modifications: also: cyclized in vitro, ring type not given here
B7: IXP1, cyclic SGWYGRRH peptide (peptide)
peptide: SGWYGRRH
modifications: head-to-tail cyclized (cyclic peptide)
notes: also called cyclic IXP1

Key:
[1] = biological target: T1, ClpXP protease (E. coli ClpX6 with ClpP14) (E. coli, UniProt P0A6H1 1-424; P0A6G7 15-207); assay: GFP-tag proteolysis by ClpXP without SspB against with SspB
T1 construct: Purified recombinant proteins mixed in the assay; also called SspB-ClpXP (when SspB is added); not shown: N-terminal His6 tag from pET28a; C-terminal His6 tag from pQE70

[2] = biological target: T1, ClpXP protease (E. coli ClpX6 with …); assay: continuous fluorimetric assay of GFP-tag proteolysis by ClpXP, with SspB
[3] = biological target: T1, ClpXP protease (E. coli ClpX6 with …); assay: continuous fluorimetric assay of GFP-tag proteolysis by ClpXP, no SspB
[4] = biological target: T1, ClpXP protease (E. coli ClpX6 with …); assay: kinetic assays with purified peptides and E. coli proteins (GFP-tag proteolysis by ClpXP with SspB)
[5] = biological target: T1, ClpXP protease (E. coli ClpX6 with …); assay: GFP-tag proteolysis by ClpXP in the presence of SspB
[6] = biological target: T1, ClpXP protease (E. coli ClpX6 with …); assay: kinetic assays with purified peptides and E. coli proteins (GFP-tag proteolysis by ClpXP with SspB); uncompetitive model
[7] = biological target: T1, ClpXP protease (E. coli ClpX6 with …); assay: cell-based or functional assay

T1 sequence (P0A6H1 whole entry, chain 1 of 2): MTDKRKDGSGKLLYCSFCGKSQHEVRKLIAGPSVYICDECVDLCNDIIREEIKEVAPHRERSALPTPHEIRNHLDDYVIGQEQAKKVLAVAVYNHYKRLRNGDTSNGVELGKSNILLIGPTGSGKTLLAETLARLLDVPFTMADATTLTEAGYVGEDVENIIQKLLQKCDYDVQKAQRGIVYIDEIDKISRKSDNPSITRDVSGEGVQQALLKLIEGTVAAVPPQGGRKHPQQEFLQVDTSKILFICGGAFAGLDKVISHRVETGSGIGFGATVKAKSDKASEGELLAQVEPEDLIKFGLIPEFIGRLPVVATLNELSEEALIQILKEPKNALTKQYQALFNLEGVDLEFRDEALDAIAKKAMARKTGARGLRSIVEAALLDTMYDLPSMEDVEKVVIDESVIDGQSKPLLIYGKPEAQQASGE
T1 sequence (P0A6G7 15-207, chain 2 of 2): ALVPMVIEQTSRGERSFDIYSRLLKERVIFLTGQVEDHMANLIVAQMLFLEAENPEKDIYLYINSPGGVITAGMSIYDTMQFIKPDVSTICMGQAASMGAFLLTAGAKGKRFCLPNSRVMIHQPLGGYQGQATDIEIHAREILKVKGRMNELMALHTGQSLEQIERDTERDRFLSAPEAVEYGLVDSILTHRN

Binder | Ki [2] [µM] | Ki [3] [µM] | further results
B1 | 21 | > 1000 | fold higher KI without SspB [1]: ≥ 10 fold
B2 | 25 | 28 | –
B3 | 64 | > 1000 | Ki [4]: 56 µM; Ki [5]: 6.4 µM
B4 | – | > 1000 | –
B5 | – | – | Ki [4]: 8 µM; fold lower KI than the linear XB peptide [5]: 7 fold
B6 | 8 | 6 | Ki [5]: 8.1 µM; fold lower KI than the linear XB peptide [5]: 7 fold
B7 | – | – | Ki [6]: 136 µM; half-life of λ O with ClpXP and 100 µM IXP1 [7]: 1.22 h

From US20090143241A1 (PENN STATE RESEARCH FOUNDATION, published 2009)
